Patent US20180258175A1 (ABLEXIS, published 2018)

How the values were obtained:
[1] = target: T1, human CD115 extracellular domain (Sino Biological 10161-H08H) (human, UniProt P07333 20-517); assay: competition ELISA, competitor TMR 20A;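 note: epitope binning by ELISA, anti-huCD115 hybridoma supernatant antibodies tested for binding to huCD115 with the competitor antibody present, loss of binding placing them in the competitor's bin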
T1 construct: extracellular domain; bought recombinant protein; also called huCD115; hu-CD115

[2] = target: T1, human CD115 extracellular domain (Sino …); assay: competition ELISA, competitor TMR 24A;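 note: clonal anti-huCD115 hybridoma supernatant antibodies bound with a competitor mouse antibody present, and failure to bind puts a clone in that competitor's epitope bin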
[3] = target: T1, human CD115 extracellular domain (Sino …); assay: competition ELISA, competitor TMR 35A;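 note: clonal hybridoma supernatant antibodies added to wells after the competitor mouse antibody, lost binding signal puts an antibody in that competitor's epitope bin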
[4] = target: T1, human CD115 extracellular domain (Sino …); assay: competition ELISA, competitor TMR 44B;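 note: binding of antibodies from single-clone hybridoma supernatants to huCD115 measured with the competitor antibody present, a drop in signal meaning both share an epitope bin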
[5] = target: T1, human CD115 extracellular domain (Sino …); assay: competition ELISA, competitor TMR 95A;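 note: clonal anti-huCD115 hybridoma supernatants tested for binding while a competitor mouse antibody is present, where failure to bind assigns them to that competitor's epitope bin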
[6] = target: T1, human CD115 extracellular domain (Sino …); assay: competition ELISA, competitor TMR 100A;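 note: clonal anti-huCD115 hybridoma supernatants tested for binding with the competitor antibody present, clones failing to bind are assigned to the competitor's epitope bin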
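Note: low signal means same epitope bin as the mouse competitor antibody.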

Row | Binder | signal vs NO COMP=100 [1] [%] | signal vs NO COMP=100 [2] [%] | signal vs NO COMP=100 [3] [%] | signal vs NO COMP=100 [4] [%] | signal vs NO COMP=100 [5] [%] | signal vs NO COMP=100 [6] [%]
1 | CCK-402A (antibody, V domains shown, AlivaMab chimeric IgG, human kappa LC) VH: not shown VL: DIVMTQTPLSLPVTPGEPASISCRSSQSLLDSDDGNTYLDWFLQKPGQSPQLLIYTLSYRASGVPDRFSGSGSGTDFTLKISRVEADDVGVYYCMQRIEFPFTFGQGTKLEIK | 145 | 131 | 11 | 126 | 131 | 147
2 | CCK-435A (antibody, V domains shown, AlivaMab chimeric IgG, human kappa LC) VH: QVQLQQWGAGLLKPSETLSLTCAVYGGSCSAYYWSWIRQPPGKGLEWIGEINHSGSTNYNPSLKSRVTISVDTSRNQFSLKLSSVTAADTAVYYCAREADAFDIWGQGTMVTVSS VL: not shown | 85 | 79 | 96 | 75 | 86 | 17
3 | CCK-455A (antibody, V domains shown, AlivaMab chimeric IgG, human kappa LC) VH: EVQLVESGGGLVQPGGSLRLSCAASGFTFSSYWMHWVRQAPGKGLVWVSRINSDGSSTSYADSVKGRFTISRDNAKNTLYLQMNSLRAEDTAVYYCARDGGTTGAFDIWGQGTMVTVSS VL: not shown | 58 | -1 | 54 | 28 | 0 | 79
4 | CCK-458A (antibody, V domains shown, AlivaMab chimeric IgG, human kappa LC) VH: QITLKESGPPLVKPTQTLTLTCTFSGFSLSTSGVGVGWIRQPPGKALEWLALIYWNDDKRYSPSLKSRLTITKDTSKNQVVLTMTNMDPVDTATYYCAHSPRYSGYFDYWGQGTLVTVSS VL: not shown | 22 | 2 | 66 | 17 | 6 | 79
5 | CCK-424A (antibody, V domains shown, AlivaMab chimeric IgG, human kappa LC) VH: QVQLQESGPGLVKPSETLSLTCTVSGGSISSYYWSWIRQPPGKVLEWIGYFSYNGNTNYNPSLKSRVTISVDTSKNQFSLKLSSVTAADTAVYYCTRGMDVWGQGTTVTVSS VL: DIQMTQSPSTLSASVGDRVTITCRASQSISDWLAWYLQKPGKAPKLLIYKASSLESGVPSRFSGSGSGTAFTLTISSLQPDDFATYYCQQYNSHWTFGQGTKVEIK | 98 | 29 | 102 | 53 | 16 | 98
6 | CCK-461A (antibody, V domains shown, AlivaMab chimeric IgG, human kappa LC) VH: QVQLQESGPGLVKPSETLSLTCTVSGGSISSYYWTWIRQPPGKGLEWIGYISYSGGTNYNPSLKSRVTISVDTSKNQFSLKLSSVTAADTAVYYCARELGNYWGQGTLVTVSS VL: not shown | 110 | 27 | 110 | 41 | 15 | 110
7 | CCK-421A (antibody, V domains shown, AlivaMab chimeric IgG, human kappa LC) VH: QVQLQESGPGLVKPSETLSLTCTVTGGSISSYYWSWIRQPAGKGLEWIGRIYTSGSTNYNPSLKSRVTMSVDTSKNHFSLKLSSVTAADTAVYYCAREILVVVAATRTGGVFDIWGQGTMVTVSS VL: DIQMTQSPSTLSASVGDRVTITCRASQSISSWLAWYQRKPGKAPKLLIYKASTLESGVPSRFSGSGSGTEFTLTISSLQPDDFATYYCQQFNSYWTFGQGTKVEIK | 104 | 18 | 100 | 55 | 9 | 99
8 | CCK-525A (antibody, V domains shown, AlivaMab chimeric IgG, human kappa LC) VH: QVQLVESGGGVVQPGRSLRLSCAASGFTFSSYGMHWVRQAPGKGLEWVAVIWYDGSIKYYADSVKGRFTISRDNSKNTLYLQMNSLRAEDTAVYYCARATYYYDSSGYYSNWFDPWGQGTLVTVSS VL: DIQMTQSPSSVSASVGDRVTITCRASQGISSWLAWYQQKPGKAPKLLIYAASSLQSGVPSRFSGSGSGTDFTLTISSLQPEDFATYYCQQANTFPFTVGPGTKVDIK | 80 | 13 | 88 | 56 | 11 | 100
9 | CCK-516A (antibody, V domains shown, AlivaMab chimeric IgG, human kappa LC) VH: not shown VL: DIVMTQTPLSLPVTPGEPASISCRSSQSLLDSDDGNTYLDWYLQKPGQSPQLLIYTLSYRASGVPDRFSGSGSGTDFTLKISRVEAEDVGVYYCMQRIEFPLTFGGGTKVEIK | 70 | 39 | 82 | 10 | 20 | 87
10 | CCK-514A (antibody, V domains shown, AlivaMab chimeric IgG, human kappa LC) VH: EVQLVESGGGLVKPGGSLRLSCAASGFTFSSYSMNWVRQAPGKGLEWVSSISSSSSYIYYADSVKGRFTISRDNAKNSLYLQMNSLRAEDTAVYYCARGGSYPYNWFDPWGQGTLVTVSS VL: not shown | 84 | 53 | 75 | 4 | 42 | 103
11 | CCK-464A (antibody, V domains shown, AlivaMab chimeric IgG, human kappa LC) VH: EVQLVESGGGLVKPGGSLRLSCAASGFTFSSYNMNWVRQAPGKGLEWVSSISSSSTYIYYADSLKGRFTISRDNAMNSLYLQMSSLRAEDTAVYYCARDSGTYPYYYFGMDVWGQGTTVTVSS VL: DIQLTQSPSFLSASVGDRVTITCRASQGISSYLAWYQQKPGKAPKLLIYAASTLQSGVPSRFSGSGSGTEFTLTISSLQPEDFATYYCQQLNTYPRTFGQGTKVEIK | 87 | 39 | 85 | 0 | 57 | 96
12 | 429 (Table 4, bin 1C block) (antibody, V domains shown, not tied) VH: QVQLEQSGAEVKRPGASVKVSCKASGYTFTGYYMHWVRQAPGQGLEWMGWINPNRGDTNYAQKFQGRVTMTRDTSISTAYMELSRLRSDDTAVYYCARDLEGGGPFDYWGQGTLVTVSS VL: DIVMTQTPLSLPVTPGEPASISCRSSQSLLDSDDGNTYLDWYLQKPGQSPQLLIYTLSYRASGVPDRFSGSGSGTDFTLKISRVEAEDVGVYYCMQRIEFPSTFGQGTRLEIK | 84 | 75 | 112 | 45 | 38 | 107
13 | 549 (Table 4, bin 1D block) (antibody, V domains shown, not tied) VH: QVQFVESGGGVVQPGRSLRLSCAASGFTLSSYGMHWVRQAPGKGLEWVAVIWYDGSNEYYADSVKGRFTISRDNSKNTLYLQMNSLRAEDTAVYYCARDRAWGSGDWGQGTLVTVSS VL: not shown | 59 | 111 | 89 | 2 | 1 | 100
14 | CCK-468A (antibody, V domains shown, AlivaMab chimeric IgG, human kappa LC) VH: EVQLVESGGGLVQPGRSLRLSCTASGFTFGDYAMTWFRQAPGKGLEWVGFIRSKAYGGTTEYAASVKGRFTISRDDSKSIAYLQMNSLKTEDTAVYYCTREGSFGALDIWGQGTMVTVSS VL: not shown | 53 | 85 | 104 | 24 | 61 | 95
